Measured values reported in the supplement of paper PMC10567573.
± gives the standard deviation.

Assay: protein stability index of a GFP-peptide fusion (GPS, HEK-293T) (PSI 1-6); higher = more stable
[1] = treatment: DMSO, c terminus: a fixed tail appended
[2] = treatment: MLN4924 1 uM, 8 h, c terminus: a fixed tail appended
[3] = treatment: DMSO, c terminus: native
[4] = treatment: MLN4924 1 uM, 8 h, c terminus: native
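Further: 24-mer peptide tiles fused after GFP, lentivirally expressed, FACS-sorted into six equal bins by GFP/DsRed ratio, decoded by Illumina sequencing, PSI is the read-weighted mean bin number.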

Sequence | protein stability index [1] | protein stability index [2] | protein stability index [3] | protein stability index [4]
NKIKVMHKQLLLFHNAVSAYFAGN [ARFIP2] | 2.55 ± 0.64 | 2.34 ± 0.24 | – | –
NLARQWNNCAFLESSAKSKINVNE [RAP1B] | 2.93 ± 0.33 | 2.75 ± 0.19 | – | –
NLGPKSKVLILRNHGLVSVGESVE [ADD1] | 2.69 ± 0.23 | 3.05 ± 0.38 | – | –
NLGVENMNHYKKTTLEIHNTEERQ [PTPN9] | 4.4 ± 0.2 | 4.8 ± 0.28 | – | –
NLHSLALDFCDFTAEMARVLTDSN [FBXO33] | 1.84 ± 0.25 | 2.49 ± 0.61 | – | –
NLNEDDTFLVFSKAELGALPHDFI | 2.82 ± 0.2 | 2.87 ± 0.16 | – | –
NLYSWDDFMELGRSIPDTQLEQVI [ACSBG2] | 3.25 ± 0.25 | 3.38 ± 0.31 | – | –
NNVVDISVPPTTDGQKPNKLQCCQ [RAB11B] | 4.72 ± 0.26 | 4.58 ± 0.12 | – | –
NRKVSQRRVDFCKDPSAIGKKQVP [CASP6] | 4.04 ± 0.16 | 4.26 ± 0.22 | – | –
NRLLQEENRTLQVLRAEHRGFQEE [CBY2] | 4.43 ± 0.21 | 4.46 ± 0.12 | – | –
NRVFSLQDLCCRAIVSCTPVHLID [RAB40C] | 2.53 ± 0.26 | 2.35 ± 0.27 | – | –
NTLAPTCFKAKLHRKRGSQPPDMA [RSPH3] | 3.83 ± 0.12 | 3.87 ± 0.25 | – | –
NVGEISVSTRLTVLREDQIPRGFP [PTPRD] | 3.31 ± 0.54 | 3.44 ± 0.44 | – | –
NWFMSFGPEIKLNTSQQGRNQAV [FAM104B] | – | – | 2.12 ± 0.49 | 2.73 ± 1
NWLQVSFTAKHANKVKVLDAPVPD [FSD1] | 3.02 ± 0.15 | 2.91 ± 0.19 | – | –
NWPARQRGTHAVVGVATARAPLHS [SPSB4] | 3.52 ± 0.19 | 3.57 ± 0.27 | – | –
PAAKPDPDGGRADEWACELRLFGR [P3H4] | 3.47 ± 0.23 | 3.36 ± 0.33 | – | –
PAPEAAHTTGPTGSAPNSPMALLT [TFE3] | 4.67 ± 0.12 | 4.67 ± 0.16 | – | –
PAPTPTPPGRLGAPYSEAWGYFHL [ZBED3] | 2.37 ± 0.27 | 2.23 ± 0.6 | – | –
PASQHSTPAGLPPSRAKPPTEGAG [FBF1] | 5.39 ± 0.3 | 5.293 ± 0.028 | – | –
PCGKYNAMVLELLGPSLEDLFDLC [CSNK1G1] | 2.69 ± 1.2 | 2.21 ± 0.5 | – | –
PDLTQAPSSLMETLEQHLNTLEGK [SNAP91] | 4.77 ± 0.35 | 5.08 ± 0.21 | – | –

Sequence | protein stability index [1] | protein stability index [2] | protein stability index [3] | protein stability index [4]
PDVIPLPHIYGARIKGVEVFCPLD [FAM189A2] | 2.55 ± 0.25 | 2.64 ± 0.14 | – | –
PEGHVLRSDGKTCAKLDSCALGDH [MATN2] | 4.79 ± 0.13 | 4.72 ± 0.21 | – | –
PELKSLAKTFHLVNPNGQKQQLVD [FAN1] | 4.05 ± 0.07 | 4.2 ± 0.22 | – | –
PGGGAGMAAGFPYALRAYLGYQAV [CEBPB] | 2.71 ± 0.77 | 2.72 ± 0.41 | – | –
PGGNLIVELARYLVDVRQEQLQGF [DNAAF3] | 2.9 ± 0.56 | 2.39 ± 0.14 | – | –
PGGRPEVIYNYVQRPFIRMSWEKE [BTBD10] | 3.06 ± 0.41 | 3.21 ± 0.43 | – | –
PGLLGSMALSNHYRSEDLLDVDTA [FBXO3] | 4.24 ± 0.097 | 4.32 ± 0.24 | – | –
PHQTSKMENLPGLASGPGKYMPHL | 3.44 ± 0.23 | 3.65 ± 0.076 | – | –
PIDFEESRFYEIHARARDQGQPAM [PCDHGC5] | 4.3 ± 0.2 | 4.38 ± 0.21 | – | –
PILAPRIFGSNKWTTEQQQRFHEI [ARL6IP1] | 3.07 ± 0.25 | 3 ± 0.22 | – | –
PKETQPFPKSEQVYLHFLSVVTED [ZNF232] | 2.69 ± 0.24 | 2.99 ± 0.28 | – | –
PKTQACSGSESPSDSGKDLPEPSK [MYCL] | 5.36 ± 0.23 | 5.63 ± 0.25 | – | –
PLDFEAYSAAALQEAMKRLRGAKA [FCHO1] | 3.46 ± 0.25 | 3.62 ± 0.29 | – | –
PLLPAPPKTPMDGADCGIQWWNAV [LYSMD4] | 3.48 ± 0.42 | 3.62 ± 0.21 | – | –
PLLRWVLTLSFLVATVAVGLYAM [HMOX1] | – | – | 2.86 ± 0.15 | 2.57 ± 0.31
PLLSASVTGHTNIVDFLTHHAQTS [FEM1C] | 3.11 ± 0.27 | 3.11 ± 0.23 | – | –
PMKSAPVMLTLSDSKHVVLPVDDD [RBBP5] | 5.08 ± 0.12 | 5.07 ± 0.08 | – | –
PMQERRASFYACRLDKHLYVIGGR [KLHL14] | 2.15 ± 0.49 | 2.23 ± 0.28 | – | –
PPCAWACPVPAHRRGSWRLPYTDG [CTBP1-DT] | 2.92 ± 0.23 | 2.93 ± 0.17 | – | –
PPDLGAQRRHGWNPKDCSENIEVK [SPSB2] | 4.84 ± 0.29 | 5.03 ± 0.14 | – | –
PPPPPPSRGGPPPPPPPPHNSGPP [WASL] | 5.28 ± 0.17 | 5.3 ± 0.2 | – | –
PQKASPNGSISSAGNSSRNSSQSS [BTBD10] | 5.04 ± 0.24 | 4.96 ± 0.13 | – | –

Sequence | protein stability index [1] | protein stability index [2] | protein stability index [3] | protein stability index [4]
PQTHSNRIYRMIKLGLGIDEDEVA [HSP90AB1] | 3.25 ± 0.4 | 3.49 ± 0.31 | – | –
PRAAHACATVGNRGFVFGGRYRDA [KLHDC2] | 2.19 ± 0.19 | 2.12 ± 0.14 | – | –
PRAERKCPRIAPADSGRYRASPTR [ELOA2] | 4.47 ± 0.14 | 4.47 ± 0.26 | – | –
PRCDLVDLGEGKICFCCEEFQPAK [FAM189A2] | 3.3 ± 0.44 | 3.67 ± 0.49 | – | –
PRLKEDQPWMVIEGIRQTEYTLTG [FSD1] | 3.18 ± 0.34 | 3.12 ± 0.19 | – | –
PRLTMHYPCLEKPRIWSLAHTATA [IRX6] | 2.31 ± 0.18 | 2.5 ± 0.11 | – | –
PRSSLAESFFVDYEENEGAGPYLL [ADAMTSL2] | 3.91 ± 0.17 | 3.82 ± 0.17 | – | –
PRTRARLGANEVLLVVGGFGSQQS [KLHL12] | 2.17 ± 0.12 | 1.97 ± 0.58 | – | –
PSAGFRCCAAPGPHVALAVRYNRV [ANKRD9] | 2.37 ± 0.28 | 2.21 ± 0.34 | – | –
PSDKVGRADAHLGSSSVALPKEAS [TOR1AIP2] | 5.23 ± 0.14 | 5.04 ± 0.091 | – | –
PSGCAIACGGLDNKCSVYPLTFDK [GNB5] | 2.72 ± 0.17 | 2.94 ± 0.36 | – | –
PSGPPPPPPSVLGVGPVAPPPPPP [WASL] | 4.86 ± 0.21 | 4.89 ± 0.18 | – | –
PSLYSSYHQGCLVNPTGNLPMWSN [NANOGP8] | 2.39 ± 0.073 | 2.37 ± 0.096 | – | –
PSRRSENRVVVSGLPPSGSWQDLK [SRSF1] | 3.89 ± 0.33 | 4.21 ± 0.22 | – | –
PSRVHGSLEPFRPQQAPQDDGSQD [PWWP2B] | 5.52 ± 0.21 | 5.52 ± 0.22 | – | –
PTVGIGGDRLQFNQLSQAELDELA [EFHC1] | 5.13 ± 0.23 | 5.27 ± 0.15 | – | –
PVCYQCLEEGKHSSHEVKALGAMW [TRIM9] | 2.64 ± 0.35 | 2.76 ± 0.32 | – | –
PVLLLQITVGLVFLCLQYRLRGKL [MOG] | 3.23 ± 0.36 | 3.17 ± 0.25 | – | –
PVTICCGHSFCRPCLCLSWEEAQS [TRIM43] | 2.61 ± 0.35 | 2.95 ± 0.36 | – | –
QAEIENKRRQLEDERRQLQHLKSK [PALM] | 5.02 ± 0.17 | 4.97 ± 0.36 | – | –
QAFRAIDRADYYLEEFKENAYKDL [PCMTD2] | 3.34 ± 0.15 | 3.17 ± 0.23 | – | –
